From patent publication US20180371086A1 (Gilead, published 2018)

Key:
[1] = target: HIV-1 Env of virus MGRM-AG-005 (HIV-1); assay: cell-based or functional assay
[2] = target: HIV-1 Env of virus MGRM-AG-008 (HIV-1); assay: cell-based or functional assay
[3] = target: HIV-1 Env of virus MGRM-D-002 (HIV-1); assay: cell-based or functional assay
[4] = target: HIV-1 Env of virus MGRM-D-014 (HIV-1); assay: cell-based or functional assay
[5] = target: HIV-1 Env of virus MGRM-F1-014 (HIV-1); assay: cell-based or functional assay
[6] = target: HIV-1 Env of virus MGRM-F1-013 (HIV-1); assay: cell-based or functional assay
[7] = target: HIV-1 Env of virus MGRM-F1-012 (HIV-1); assay: cell-based or functional assay
[8] = target: HIV-1 Env of virus MGRM-G-014 (HIV-1); assay: cell-based or functional assay
[9] = target: HIV-1 Env of virus MGRM-G-019 (HIV-1); assay: cell-based or functional assay
[10] = target: HIV-1 Env of virus MGRM-G-024 (HIV-1); assay: cell-based or functional assay
[11] = target: HIV-1 Env of virus MGRM-G-011 (HIV-1); assay: cell-based or functional assay
[12] = target: HIV-1 Env of virus MGRM-Chronic-B-004 (HIV-1); assay: cell-based or functional assay
[13] = target: HIV-1 Env of virus MGRM-Acute-B-009 (HIV-1); assay: cell-based or functional assay
[14] = target: HIV-1 Env of virus MGRM-Chronic-B-006 (HIV-1); assay: cell-based or functional assay
[15] = target: HIV-1 Env of virus MGRM-Chronic-B-023 (HIV-1); assay: cell-based or functional assay
[16] = target: HIV-1 Env of virus MGRM-Chronic-B-008 (HIV-1); assay: cell-based or functional assay
[17] = target: HIV-1 Env of virus MGRM-Acute-B-003 (HIV-1); assay: cell-based or functional assay
[18] = target: HIV-1 Env of virus MGRM-Acute-B-007 (HIV-1); assay: cell-based or functional assay
[19] = target: HIV-1 Env of virus MGRM-Acute-B-010 (HIV-1); assay: cell-based or functional assay
[20] = target: HIV-1 Env of virus MGRM-Acute-B-004 (HIV-1); assay: cell-based or functional assay
[21] = target: HIV-1 Env of virus MGRM-Chronic-B-002 (HIV-1); assay: cell-based or functional assay
[22] = target: HIV-1 Env of virus MGRM-Acute-B-006 (HIV-1); assay: cell-based or functional assay
[23] = target: HIV-1 Env of virus MGRM-Chronic-B-014 (HIV-1); assay: cell-based or functional assay
[24] = target: HIV-1 Env of virus MGRM-Chronic-B-015 (HIV-1); assay: cell-based or functional assay
[25] = target: HIV-1 Env of virus MGRM-Chronic-B-019 (HIV-1); assay: cell-based or functional assay
[26] = target: HIV-1 Env of virus MGRM-Chronic-B-007 (HIV-1); assay: cell-based or functional assay
[27] = target: HIV-1 Env of virus MGRM-Chronic-B-022 (HIV-1); assay: cell-based or functional assay
[28] = target: HIV-1 Env of virus MGRM-C-011 (HIV-1); assay: cell-based or functional assay
[29] = target: HIV-1 Env of virus MGRM-C-023 (HIV-1); assay: cell-based or functional assay
[30] = target: HIV-1 Env of virus MGRM-C-008 (HIV-1); assay: cell-based or functional assay
[31] = target: HIV-1 Env of virus MGRM-C-017 (HIV-1); assay: cell-based or functional assay
[32] = target: HIV-1 Env of virus MGRM-C-012 (HIV-1); assay: cell-based or functional assay
[33] = target: HIV-1 Env of virus MGRM-C-007 (HIV-1); assay: cell-based or functional assay
[34] = target: HIV-1 Env of virus MGRM-C-018 (HIV-1); assay: cell-based or functional assay
[35] = target: HIV-1 Env of virus MGRM-C-013 (HIV-1); assay: cell-based or functional assay
[36] = target: HIV-1 Env of virus MGRM-A-002 (HIV-1); assay: cell-based or functional assay
[37] = target: HIV-1 Env of virus MGRM-A-009 (HIV-1); assay: cell-based or functional assay
[38] = target: HIV-1 Env of virus MGRM-A-013 (HIV-1); assay: cell-based or functional assay
[39] = target: HIV-1 Env of virus MGRM-A-003 (HIV-1); assay: cell-based or functional assay
[40] = target: HIV-1 Env of virus MGRM-A-006 (HIV-1); assay: cell-based or functional assay
[41] = target: HIV-1 Env of virus MGRM-AG-009 (HIV-1); assay: cell-based or functional assay
Human FcRn = target: T1, Human FcRn (human, UniProt P55899 24-297; P61769 21-119); assay: ELISA, FcRn coated on plate, pH 7.0
T1 construct: also called neonatal Fc receptor
T1 sequence (P55899 24-297 limits assumed, chain 1 of 2): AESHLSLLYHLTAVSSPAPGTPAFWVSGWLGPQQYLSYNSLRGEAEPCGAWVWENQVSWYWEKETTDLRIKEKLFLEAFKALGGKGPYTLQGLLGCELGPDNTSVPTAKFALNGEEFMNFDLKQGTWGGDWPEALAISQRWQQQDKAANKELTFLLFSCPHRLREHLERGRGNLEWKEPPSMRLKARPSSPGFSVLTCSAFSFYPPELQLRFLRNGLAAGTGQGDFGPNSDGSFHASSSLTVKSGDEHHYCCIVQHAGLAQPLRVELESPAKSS
T1 sequence (P61769 21-119 limits assumed, chain 2 of 2): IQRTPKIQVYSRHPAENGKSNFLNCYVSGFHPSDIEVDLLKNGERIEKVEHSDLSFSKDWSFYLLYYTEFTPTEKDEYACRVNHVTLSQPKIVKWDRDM
Method: The binding of antibodies to FcRn of various antibody variants at different pHs was determined. A 96-well Maxisorp plate was coated with 100 ul of 5 μg/ml FcRn. The plate was incubated overnight at 4° C., and then blocked with 4% skim milk for 2 hr at room temperature after washing 3 times with 0.05% Tween 20 washing buffer. […] The plate was then washed 3 times and 100 μL of Fab-anti-human Fab-HRP or Goat anti-human IgG-HRP secondary antibody diluted in 4% skimmed milk was added. Plates were then incubated 50 min at room temperature, washed three times, and 100 μL fresh TMB substrate was added. Plates were developed for 3 minutes on bench with gentle shaking. Plate was quenched with 100 μL 1M HCl, shaken briefly, read at A450 on a spectramax m5 plate reader.

B1: PGT121.60 hIgG1/hLambda (antibody)
heavy: QMQLQESGPGLVKPSETLSLTCSVSGASISDSYWSWIRRSPGKGLEWIGYVHKSGDTNYNPSLKSRVHLSLDTSKNQVSLSLTGVTAADSGKYYCARTLHGRRIYGIVAFNEWFTYFYMDVWGTGTQVTVSSASTKGPSVFPLAPSSKSTSGGTAALGCLVKDYFPEPVTVSWNSGALTSGVHTFPAVLQSSGLYSLSSVVTVPSSSLGTQTYICNVNHKPSNTKVDKKVEPKSCDKTHTCPPCPAPELLAGPDVFLFPPKPKDTLMISRTPEVTCVVVDVSHEDPEVKFNWYVDGVEVHNAKTKPREEQYNSTYRVVSVLTVLHQDWLNGKEYKCKVSNKALPLPEEKTISKAKGQPREPQVYTLPPSREEMTKNQVSLTCLVKGFYPSDIAVEWESNGQPENNYKTTPPVLDSDGSFFLYSKLTVDKSRWQQGNVFSCSVLHEALHSHYTQKSLSLSPGK
light: not shown
PGT121.60 IC50 [1]: 0.203 µg/mL
PGT121.60 IC50 [2]: 1.71 µg/mL
PGT121.60 IC50 [3]: 1.5 ng/mL
PGT121.60 IC50 [4]: 1.9 ng/mL
PGT121.60 IC50 [5]: 0.0509 µg/mL
PGT121.60 IC50 [6]: 0.0871 µg/mL
PGT121.60 IC50 [7]: 1.19 µg/mL
PGT121.60 IC50 [8]: 3.4 ng/mL
PGT121.60 IC50 [9]: 9.1 ng/mL
PGT121.60 IC50 [10]: 0.0119 µg/mL
PGT121.60 IC50 [11]: 1.91 µg/mL
PGT121.60 IC50 [12]: 1.3 ng/mL
PGT121.60 IC50 [13]: 1.6 ng/mL
PGT121.60 IC50 [14]: 2 ng/mL
PGT121.60 IC50 [15]: 3.4 ng/mL
PGT121.60 IC50 [16]: 5.6 ng/mL
PGT121.60 IC50 [17]: 0.0179 µg/mL
PGT121.60 IC50 [18]: 0.0255 µg/mL
PGT121.60 IC50 [19]: 0.0328 µg/mL
PGT121.60 IC50 [20]: 0.0497 µg/mL
PGT121.60 IC50 [21]: 0.0649 µg/mL
PGT121.60 IC50 [22]: 0.0966 µg/mL
PGT121.60 IC50 [23]: 0.133 µg/mL
PGT121.60 IC50 [24]: 0.185 µg/mL
PGT121.60 IC50 [25]: 0.199 µg/mL
PGT121.60 IC50 [26]: 2.55 µg/mL
PGT121.60 IC50 [27]: 11.5 µg/mL
PGT121.60 IC50 [28]: 1.2 ng/mL
PGT121.60 IC50 [29]: 4.4 ng/mL
PGT121.60 IC50 [30]: 4.4 ng/mL
PGT121.60 IC50 [31]: 5.8 ng/mL
PGT121.60 IC50 [32]: 0.0338 µg/mL
PGT121.60 IC50 [33]: 0.199 µg/mL
PGT121.60 IC50 [34]: 10.3 µg/mL
PGT121.60 IC50 [35]: 12.3 µg/mL
PGT121.60 IC50 [36]: 4.7 ng/mL
PGT121.60 IC50 [37]: 7.4 ng/mL
PGT121.60 IC50 [38]: 0.0561 µg/mL
PGT121.60 IC50 [39]: 0.0865 µg/mL
PGT121.60 IC50 [40]: 4.05 µg/mL
PGT121.60 IC50 [41]: 0.0868 µg/mL
EC50 (Human FcRn): 78 nM
